Data: patent US20250270298A1

B1: Flagella-ECF-1F4 (VHH)
VHH: EVQLVESGGGLVQPGGSLRLSCEAAGSILRVNSMGWYRQAPGKQRDLVSIITSNNDAKYSDSVRGRFTISRDNAKNTVYLQMSSLKPDDTAVYYCNAYVETAGWIPTTHNLWGQGTQVTVSS
B2: Flagella-ECF-1B6 (VHH)
VHH: EVQLVESGGGLVQSGGSLRLSCAASGRIFSITNMGWYRQAPGEQRELVADMPSGGSTNYADSVKGRFTISRDIAKNTVYLQMNSLKPEDTAVYYCNLKMSQPGWLVTNHNFWGQGTQVTVSS
B3: Flagella-ECF-1G8 (VHH)
VHH: EVQLVESGGGLVEAGGSLTLSCTTSEPTSLLNLMGWWRQGPGKEREFVASSNWSGKLVDYADGVEGRFTVIRNEDENAISLQMNSLTVEDTAIYYCAASRLGLPRSAQANQYWGQGTQVTVSS
B4: CjaD-ECD-1D3 (VHH, not shown: small tags and cut ends)
VHH: EVQLVESGGGLVQTGGSLRLSCATSGFTFEYSAIAWFRQAPGKGREGVSCISNRDGTTVYADSVKGRFTISSDNAKNTVYLQMNSLTPEDTGVYYCAADAGVYTADYCRDSRYDPVSKDAWGKGTLVTVSS
B5: Flagella-ECF-1D9 (VHH)
VHH: EVQLVESGGGLVEPGGSLRLSCATSGFAFDNYCMYWVRQAPGKGLEWISGITNSGSFSYYADSVKGRFTISRDNAKNTLFLEMNSLTVDDTAVYYCAIHGHGCTWDSLRTTSGPRYRGQGTQVTVSS
B6: CfrA-ECA-1G7 (VHH, not shown: small tags and cut ends)
VHH: EVQLVESGGGLVQPGGSLRLSCTASGSSLDYYAIGWFRQAPGKEREGVSCISSRDGRIYWADSVEGRFTISRDNGKNTVYLQMNSLKPEDTAVYYCATSRWSFCPSDWSPVPSPFGSWGQGTQVTVSS
B7: CmeC-ECM-1D6 (VHH)
VHH: EVQLVESGGGLVQAGGSLRLSCAASGGTFSRYMMGWFRQAPGKEREFVASIARSGGTYFADSVKGRLTATRDDAKNTMHLQMNSLKPEDTAVYYCAAGAGGSYPALLDFEYLVWGQGTQVTVSS
B8: CadF-ECF-1D10 (VHH, not shown: small tags and cut ends)
VHH: EVQLVESGGGLVQPGGSLRLSCAASGFTLDDYAVGWFRQAPGKEREWLSGISSRDGSTVYADSVKGRFTISRDNAKNTYYLQMNSLKPEDTAVYYCAAAVGYILTRVKSHYNDWSQGTQVTVSS
B9: Flagella-ECF-1C4 (VHH)
VHH: EVQLVESGGGLVQAGGSLRVSCAASGRAVHNYALNWFRQAPGKAREFVSAISWTRRTYYANSVRGRFTISRDNNGNMVHLQMSNLKSEDTALYYCAAATTWPRLDGAEYWGQGTQVTVSS
B10: CmeC-ECM-1C11 (VHH)
VHH: EVQLVESGGGLVQPGGSLRLSCAASGFTFSDQPMGWYRQAPGQGREWIAFISSGSGGTTDYKNSVKGRFTISRDNAKNIVYLQMNSLKPDDTARYYCNFRIDNNYWGQGTQVTVSS
B11: CmeC-ECM-1G7 (VHH)
VHH: EVQLVESGGDLVQDGGSLRLSCAASGGDFRNPVTGWYRQAPGKQRELVGLITSDGRTNYGDSVMGRFTISMDTAKNTMYLQMNSLKPEDSAVYYCAASLLYGGLQFSTNIWGQGTQVTVSS
B12: CjaD-ECD-1A7 (VHH, not shown: small tags and cut ends)
VHH: EVQLVESGGGLVQAGGSLRLSCATSGFTPGDYAIGWFRQAPGKAREGVSCLSTRDGTTYYADSVKGRFTISTDNAQNTVYLQMNSLKPEDTAVYYCAGEQISFRAVYYCTEYEPVYWSQGTQVTVSS
B13: CadF-ECF-1F10 (VHH, not shown: small tags and cut ends)
VHH: EVQLVESGGGSVQAGGSLRLSCTASIRAGNRYAMGWFRQAPGKEREFVAGISWSGGNTYHADSVNGRFTISRDNAKNTLYLTMNSLKSEDTAVYYCAASWKPLTFRGDDYTYWGQGTQVTVSS

Tests used:
[1] = biological target: C. jejuni flagella (Campylobacter jejuni); experiment: apparent affinity estimated from ELISA dose response on immobilized Cj flagella
[2] = biological target: C. jejuni flagella (Campylobacter jejuni); experiment: ELISA dose response, purified VHH on immobilized Cj flagella, rabbit anti-VHH detection
[3] = biological target: CjaD (Campylobacter jejuni); experiment: apparent affinity from ELISA dose response, purified VHH on immobilized CjaD, anti-FLAG detection
[4] = biological target: CfrA (Campylobacter jejuni); experiment: ELISA on directly coated CfrA (200 ng/well), serial dilution of purified VHH, anti-FLAG + anti-mouse-HRP, OPD, absorption at 490 nm
[5] = biological target: CmeC (Campylobacter jejuni); experiment: ELISA on directly coated CmeC (200 ng/well), serial dilution of purified VHH, anti-FLAG + anti-mouse-HRP, OPD, absorption at 490 nm
[6] = biological target: CadF (Campylobacter jejuni); experiment: ELISA on directly coated CadF (200 ng/well), serial dilution of purified VHH, rabbit anti-VHH + anti-rabbit-HRP, OPD, absorption at 490 nm
[7] = biological target: CjaD (Campylobacter jejuni); experiment: ELISA on directly coated CjaD (200 ng/well), serial dilution of purified VHH, anti-FLAG + anti-mouse-HRP, OPD, absorption at 490 nm

Row | Binder | Kd [1] | Relative Bmax [2] | other results
1 | B1 | 0.6 nM | 2.5 | –
2 | B2 | 5 nM | 2.5 | –
3 | B3 | 7 nM | 2.5 | –
4 | B4 | – | – | Kd [3]: 0.06 nM
5 | B5 | 9 nM | 3 | –
6 | B6 | – | – | EC50 (read off the curve) [4]: 9 nM
7 | B7 | – | – | EC50 (read off the curve) [5]: 0.7 nM
8 | B8 | – | – | EC50 (read off the curve) [6]: 0.7 nM
9 | B9 | 4 nM | 3 | –
10 | B10 | – | – | EC50 (read off the curve) [5]: 0.4 nM
11 | B11 | – | – | EC50 (read off the curve) [5]: 0.3 nM
12 | B12 | – | – | EC50 (read off the curve) [7]: 2 nM
13 | B13 | – | – | EC50 (read off the curve) [6]: 0.4 nM
